This passage reports stoichiometry N results from doi:10.1101/2023.05.26.542399.

The experiment addresses Arabidopsis thaliana PAXX (AtPAXX), full length, untagged (Arabidopsis thaliana). Briefly: crystal structure.

Regarding “Arabidopsis thaliana PAXX (AtPAXX), full length, untagged (natural protein)”, the stoichiometry N was 2.

As usually defined, the stoichiometry N is a count of units in the complex or per binding partner.
